Data set [1] addresses T1, S100A6 (rabbit, intact) (rabbit, UniProt P30801 1-90). Description: ITC. (In ITC the heat of successive injections is recorded.)
The target of data set [2] is T1, S100A6 (rabbit, intact). Description: native MS.
Data set [3] deals with the molecule itself. Description: cross-linking.
Data set [4] addresses T1, S100A6 (rabbit, intact). In words: NMR titration.

B1: SIP(178–229), SGS domain of SIP (domain or fragment)
chain: EKPSYDTEADPSEGLMNVLKKIYEDGDDDMKRTINKAWVESREKQAREDTEF
B1: the binding result in data set [1] is “binds”.
For SEGLMNVLKKIYEDGDDDMKRTINKAWVESR (peptide, UniProt Q9CXW3 189-219, looked up) [SIP(189–219)], the “stoichiometry N” value in data set [2] was 2 SIP(189–219) per S100A6 dimer; in data set [4], 2 SIP per S100A6 dimer. For the same molecule, in data set [3], the binding result is “binds”. In addition, in data set [1], the Kd worked out at 5 µM.
As for SEGLMNVLKKIYEDG [SIP(189–203)], the Kd in data set [1] came to 20 µM.

The stoichiometry N is a count of units in the complex or per binding partner. As usually defined, the Kd is the free concentration of one partner at which half of the binding sites on the other are occupied at equilibrium, for simple one-to-one binding. High values mean a looser complex, low ones a tighter complex.

These data come from PMC2666074 (Biochemistry, 2008).
